Test results published in patent publication US20120253017A1 (published 2012).
Read-outs that look alike come from different tables or passages of the source. Blank lines part the entries; values can stand above or below the binder they belong to.

Experiments:
[1] = biological target: T1, human c-kit (recombinant, on BIAcore chip or beads) (human, UniProt P10721 26-524); experiment: BIAcore, dAb at 1000 and 500 nM
T1 construct: extracellular domain; also called hcKIT; biotinylated human c-kit
Procedure: Unique dAbs were expressed as bacterial supernatants in 2.5 L shake flasks in Onex media at 37° C. for 24 hrs at 250 rpm. dAbs were purified from the culture media by absorption to protein A or L agarose followed by elution with 10 mM glycine pH2.0.

[2] = biological target: T1, human c-kit (recombinant, on BIAcore …); experiment: BIAcore, c-kit on SA chip
Procedure: All unique dAb clones were expressed in 50 ml cultures (OnEX plus carbenicillin) overnight at 37° C. and purified on protein A (VH dAbs) or protein L (VK dAbs). Purified dAbs were passed over a SA BIAcore chip coated with either human or mouse c-kit at 1 μM to identify those dAbs that bound specifically to either human or murine c-kit.

[3] = biological target: T2, cyno c-kit (recombinant, on BIAcore chip) (cynomolgus monkey); experiment: BIAcore, c-kit on SA chip
T2 chain: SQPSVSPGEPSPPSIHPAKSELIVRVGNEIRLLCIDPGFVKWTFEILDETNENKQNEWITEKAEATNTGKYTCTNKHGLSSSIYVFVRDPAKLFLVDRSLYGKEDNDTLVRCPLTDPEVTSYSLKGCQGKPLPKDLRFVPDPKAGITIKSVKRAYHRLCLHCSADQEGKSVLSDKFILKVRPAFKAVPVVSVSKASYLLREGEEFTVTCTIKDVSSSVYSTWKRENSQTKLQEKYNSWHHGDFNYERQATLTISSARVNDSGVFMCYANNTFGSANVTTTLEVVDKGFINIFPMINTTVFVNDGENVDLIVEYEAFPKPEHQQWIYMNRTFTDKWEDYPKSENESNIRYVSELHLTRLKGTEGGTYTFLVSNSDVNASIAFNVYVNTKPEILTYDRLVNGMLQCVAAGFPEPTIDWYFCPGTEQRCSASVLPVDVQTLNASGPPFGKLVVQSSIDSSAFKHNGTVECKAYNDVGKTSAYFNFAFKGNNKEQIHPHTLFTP

[4] = biological target: T3, human c-kit on HEL-92.1.7 and KU812 cells (human, UniProt P10721 26-976); experiment: flow cytometry, HEL-92.1.7 cells
T3 construct: whole, on cells

[5] = biological target: T4, mouse ventricular myosin light chain 1, GlySer(His)6 tag (mouse, UniProt P09542 1-204); experiment: BIAcore, vMLC-1 immobilised
T4 construct: also called mouse vMLC-1
Procedure: (§1) Affinity of all 8 humanised mAbs was determined by BIAcore as described above.

[6] = biological target: T5, human ventricular myosin light chain 1, GlySer(His)6 tag (human, UniProt P08590 1-195, limits assumed); experiment: BIAcore, vMLC-1 immobilised
T5 construct: also called human vMLC-1; vMLC1-6xHIS
Procedure: as §1

[7] = biological target: T1, human c-kit (recombinant, on BIAcore …); experiment: BIAcore
[8] = biological target: Myosin Light Chain (on streptavidin chip; vMLC1-sulfotag); experiment: BIAcore, bad fit
[9] = biological target: T4, mouse ventricular myosin light chain 1, …; experiment: BIAcore, vMLC-1 immobilised; remark: listed apart in the source
[10] = biological target: T5, human ventricular myosin light chain 1, …; experiment: BIAcore, vMLC-1 immobilised; remark: listed apart in the source

T5 sequence (P08590 other isoform, or with tags, fused parts or gaps limits assumed): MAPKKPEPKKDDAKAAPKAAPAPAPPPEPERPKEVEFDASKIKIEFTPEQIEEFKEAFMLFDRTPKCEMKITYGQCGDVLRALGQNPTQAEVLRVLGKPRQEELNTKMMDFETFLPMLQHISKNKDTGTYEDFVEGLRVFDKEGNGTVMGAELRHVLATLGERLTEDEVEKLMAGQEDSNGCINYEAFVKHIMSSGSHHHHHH
Myosin Light Chain (on streptavidin chip; vMLC1-sulfotag), sequence (chain, as listed by the source): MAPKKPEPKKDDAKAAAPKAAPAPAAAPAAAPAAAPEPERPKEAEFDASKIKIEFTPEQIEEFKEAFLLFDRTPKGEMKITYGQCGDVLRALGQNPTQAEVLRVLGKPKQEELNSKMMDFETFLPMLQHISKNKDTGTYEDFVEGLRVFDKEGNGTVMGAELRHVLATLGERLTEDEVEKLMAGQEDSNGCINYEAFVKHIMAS
T3 sequence (P10721 26-976): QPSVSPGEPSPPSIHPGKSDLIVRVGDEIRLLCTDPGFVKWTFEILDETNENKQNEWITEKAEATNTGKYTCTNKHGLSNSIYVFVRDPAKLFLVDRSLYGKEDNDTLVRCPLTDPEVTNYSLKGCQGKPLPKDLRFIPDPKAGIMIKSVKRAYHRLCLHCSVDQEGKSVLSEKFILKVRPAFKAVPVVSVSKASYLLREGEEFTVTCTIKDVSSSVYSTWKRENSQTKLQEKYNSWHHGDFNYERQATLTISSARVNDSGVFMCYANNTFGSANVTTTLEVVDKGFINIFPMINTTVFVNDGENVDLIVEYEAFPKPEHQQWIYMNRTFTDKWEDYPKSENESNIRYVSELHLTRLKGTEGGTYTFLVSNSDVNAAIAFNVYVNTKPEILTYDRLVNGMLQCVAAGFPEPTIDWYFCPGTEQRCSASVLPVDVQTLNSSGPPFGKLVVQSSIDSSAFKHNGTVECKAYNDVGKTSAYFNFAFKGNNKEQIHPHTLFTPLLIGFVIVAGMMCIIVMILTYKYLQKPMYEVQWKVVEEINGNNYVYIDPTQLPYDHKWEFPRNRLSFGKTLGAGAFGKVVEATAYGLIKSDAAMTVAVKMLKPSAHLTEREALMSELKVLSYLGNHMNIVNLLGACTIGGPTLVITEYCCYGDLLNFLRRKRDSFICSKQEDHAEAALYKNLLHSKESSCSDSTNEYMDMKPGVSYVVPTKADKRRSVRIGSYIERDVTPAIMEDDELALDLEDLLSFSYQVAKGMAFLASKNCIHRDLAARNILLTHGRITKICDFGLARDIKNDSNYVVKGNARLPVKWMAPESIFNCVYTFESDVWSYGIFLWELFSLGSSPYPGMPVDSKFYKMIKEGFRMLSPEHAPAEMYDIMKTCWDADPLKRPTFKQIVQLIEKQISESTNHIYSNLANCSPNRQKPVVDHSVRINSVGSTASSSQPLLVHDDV
T4 sequence (P09542 other isoform, or with tags, fused parts or gaps): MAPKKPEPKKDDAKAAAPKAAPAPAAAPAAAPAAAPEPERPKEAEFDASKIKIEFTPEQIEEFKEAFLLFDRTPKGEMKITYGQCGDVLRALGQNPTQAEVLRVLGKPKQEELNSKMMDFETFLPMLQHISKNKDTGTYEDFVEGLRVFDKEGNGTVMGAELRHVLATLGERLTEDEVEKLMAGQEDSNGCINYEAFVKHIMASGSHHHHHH

B2: DOM28h-5 (other)
chain: DIQMTQSPSSLSASVGDRVTITCRASQWIGTALTWYQQKPGKAPKLLIYRGSYLQSGVPSRFSGSGSGTDFTLTISSLQPEDFATYYCQQRYFHPYTFGQGTRVEIKR
notes: dAb, C-terminal FLAG tag (pDOM10); also called DOM28h-005
- Kd [1]: 533 nM
- Kd [3]: 550 nM
- Kd [2]: 533 nM

B6: humanised 39-15 mAb 4-1:5-51 (antibody, human IgG1, kappa, V domains shown)
VH: EVQLVQSGAEVKKPGESLKISCKGSGYSFTTYWIHWVRQMPGKGLEWMGAIYPGDGDTRYTQNFKDQVTISADKSISTAYLQWSSLKASDTAMYYCAREGTPPFTTATFAMAYWGQGTLVTVSS
VL: DIVMTQSPDSLAVSLGERATINCKSSQSLLYSRTRKNYLAWYQQKPGQPPKLLIYWASTRQSGVPDRFSGSGSGTDFTLTISSLQAEDVAVYYCKQSYNLFTFGQGTKLEIKR
notes: human IgG1 kappa
- Kd [5]: 0.0153 nM
- koff [5]: 2.16e-05 s⁻¹
- kon [5]: 1.42e+06 M⁻¹ s⁻¹
- Kd [6]: 0.00169 nM
- koff [6]: 2.65e-06 s⁻¹
- kon [6]: 1.57e+06 M⁻¹ s⁻¹

B10: DMS5053 (chimeric MLC mAb-cKIT dAb, DOM28m-017) (bispecific antibody)
heavy: not shown
light: DIVMSQSPSSLAVSAGDKVTMSCKSSQSLLYSRTRKNYLAWYQQKPGQSPKLLIYWASTRQSGVPDRFTGSGSGTDFTLTISSVQAEDLAVYYCKQSYNLFTFGSGTKLEIKRTVAAPSVFIFPPSDEQLKSGTASVVCLLNNFYPREAKVQWKVDNALQSGNSQESVTEQDSKDSTYSLSSTLTLSKADYEKHKVYACEVTHQGLSSPVTKSFNRGEC
- Kd [7]: 36000 nM
- Kd [8]: 0.003 nM

B11: DMS5056 (chimeric MLC mAb-cKIT dAb, DOM28m-107) (bispecific antibody)
heavy: not shown
light: DIVMSQSPSSLAVSAGDKVTMSCKSSQSLLYSRTRKNYLAWYQQKPGQSPKLLIYWASTRQSGVPDRFTGSGSGTDFTLTISSVQAEDLAVYYCKQSYNLFTFGSGTKLEIKRTVAAPSVFIFPPSDEQLKSGTASVVCLLNNFYPREAKVQWKVDNALQSGNSQESVTEQDSKDSTYSLSSTLTLSKADYEKHKVYACEVTHQGLSSPVTKSFNRGEC
- Kd [8]: 0.048 nM

B12: DMS5058 (chimeric MLC mAb-cKIT dAb, DOM28m-112) (bispecific antibody)
heavy: not shown
light: DIVMSQSPSSLAVSAGDKVTMSCKSSQSLLYSRTRKNYLAWYQQKPGQSPKLLIYWASTRQSGVPDRFTGSGSGTDFTLTISSVQAEDLAVYYCKQSYNLFTFGSGTKLEIKRTVAAPSVFIFPPSDEQLKSGTASVVCLLNNFYPREAKVQWKVDNALQSGNSQESVTEQDSKDSTYSLSSTLTLSKADYEKHKVYACEVTHQGLSSPVTKSFNRGEC
- Kd [8]: 0.042 nM

B13: DMS5055 (chimeric MLC mAb-cKIT dAb, DOM28m-104) (bispecific antibody)
heavy: not shown
light: DIVMSQSPSSLAVSAGDKVTMSCKSSQSLLYSRTRKNYLAWYQQKPGQSPKLLIYWASTRQSGVPDRFTGSGSGTDFTLTISSVQAEDLAVYYCKQSYNLFTFGSGTKLEIKRTVAAPSVFIFPPSDEQLKSGTASVVCLLNNFYPREAKVQWKVDNALQSGNSQESVTEQDSKDSTYSLSSTLTLSKADYEKHKVYACEVTHQGLSSPVTKSFNRGEC
- Kd [7]: 72 nM
- Kd [8]: 0.124 nM

B16: recombinant anti-MLC mAb (39-15) (antibody, mouse IgG1, V domains shown)
VH: QVQLQQSGAELASPGASVKLSCKASGYTFTTYWIHWVKQRPGQGLEWIGAIYPGDGDTRYTQNFKDKATLTADSSSSTAYMQLSSLASEDSAVFYCAREGTPPFTTATFAMAYWGQGTSVTVSS
VL: DIVMSQSPSSLAVSAGDKVTMSCKSSQSLLYSRTRKNYLAWYQQKPGQSPKLLIYWASTRQSGVPDRFTGSGSGTDFTLTISSVQAEDLAVYYCKQSYNLFTFGSGTKLEIKR
notes: mouse IgG1 heavy and mouse kappa constant regions, expressed in HEK293E
- Kd [9]: 0.0222 nM
- koff [9]: 3.46e-05 s⁻¹
- kon [9]: 1.56e+06 M⁻¹ s⁻¹
- Kd [10]: 0.0047 nM
- koff [10]: 1.78e-05 s⁻¹
- kon [10]: 3.81e+06 M⁻¹ s⁻¹

B17: DOM28h-84 (other)
chain: EVQLLESGGGLVQPGGSLRLSCAASGFTFSSYGMSWVRQAPGKGLEWVSWISGTGSGTYYADSVKGRFTISRDNSKNTLYLQMNSLRAEDTAVYYCAKGVPGNNRALFDYWGQGTLVTVSS
notes: dAb, C-terminal FLAG tag (pDOM10); also called DOM28h-084
- Kd [1]: 896 nM
- Kd [3]: 10200 nM
- Kd [2]: 896 nM

The remaining lines, values ahead:

- Kd [1]: 3300 nM
- Kd [2]: 3300 nM
B1: DOM28h-110 (other)
chain: EVQLLESGGGLVQPGGSLRLSCAASGFTFRKYAMMWVRQAPGKGLEWVSTITASGGGTYYADSVKGRFTISRDNSKNTLYLQMNSLRAEDTAVYYCAKPLNQYATQFDYWGQGTLVTVSS
notes: dAb, C-terminal FLAG tag (pDOM10)

- Kd [1]: 21800 nM
- Kd [3]: 19200 nM
- Kd [2]: 21800 nM
B3: DOM28h-94 (other)
VH: EVQLLESGGGLVQPGGSLRLSCAASGFTFFPYAMGWVRQAPGKGLEWVSFISGRGDTTYYADSVKGRFTISRDNSKNTLYLQMNSLRAEDTAVYYCAKTATSDLWNFDYWGQGTLVTVSS
notes: VH dAb, C-terminal FLAG tag (pDOM10); also called DOM28h-094

- binding result [4]: binds
B4: DOM28m-52 (other)
chain: EVQLLESGGGLVQPGGSLRLSCAASGFTFSSYNMSWVRQAPGKGLEWVSWISSSGLMTYYADSVKGRFTISRDNSKNTLYLQMNSLRAEDTAVYYCAKTSLGSHPSRRPFDYWGQGTLVTVSS
notes: as for B1

- binding result [4]: binds
B5: DOM28m-53 (other)
VH: EVQLLESGGGLVQPGGSLRLSCAASGFTFSDYMMMWVRQAPGKGLEWVSTIDHAGAVTYYADSVKGRFTISRDNSKNTLYLQMNSLRAEDTAVYYCAKNQPVWQANQSRRFDYWGQGTLVTVSS
notes: as for B1

- Kd [1]: 48 nM
- Kd [3]: 98.5 nM
- Kd [2]: 48 nM
B7: DOM28h-33 (other)
chain: EVQLLESGGGLVQPGGSLRLSCAVSGFTFWNYRMGWVRQAPGKGLEWVSSITPQGTHTYYADSVKGRFTISRDNSKNTLYLQMNSLRAEDTAVYYCAKILSMSENHFDYWGQGTLVTVSS
notes: dAb, C-terminal FLAG tag (pDOM10); also called DOM28h-033

- Kd [3]: 345 nM
- Kd [2]: 239 nM
B8: DOM28h-43 (other)
chain: DIQMTQSPSSLSASVGDRVTITCRASSPIGESLKWYQQKPGKAPKLLIWGGSWLQSGVPSRFSGSGSGTDFTLTISSLQPEDFATYYCGPGRGWPLTFGQGTKVEIKR
notes: dAb, C-terminal FLAG tag (pDOM10); also called DOM28h-043

- Kd [1]: 2900 nM
- Kd [2]: 2900 nM
B9: DOM28h-66 (other)
chain: EVQLLESGGGLVQPGGSLRLSCAASGFTFPLYEMHWVRQAPGKGLEWVSRISPTGATTYYADSVKGRFTISRDNSKNTLYLQMNSLRAEDTAVYYCAKDRRGRAGVTFDYWGQGTLVTVSS
notes: dAb, C-terminal FLAG tag (pDOM10); also called DOM28h-066

- Kd [9]: 0.0235 nM
- koff [9]: 3.07e-05 s⁻¹
- kon [9]: 1.31e+06 M⁻¹ s⁻¹
- Kd [10]: 0.0003 nM
- koff [10]: 1.1e-06 s⁻¹
- kon [10]: 3.5e+06 M⁻¹ s⁻¹
B14: anti-MLC mAb 39-15 purified from the hybridoma (ATCC HB11709) (antibody, mouse IgG1, V domains shown)
VH: QVQLQQSGAELASPGASVKLSCKASGYTFTTYWIHWVKQRPGQGLEWIGAIYPGDGDTRYTQNFKDKATLTADSSSSTAYMQLSSLASEDSAVFYCAREGTPPFTTATFAMAYWGQGTSVTVSS
VL: DIVMSQSPSSLAVSAGDKVTMSCKSSQSLLYSRTRKNYLAWYQQKPGQSPKLLIYWASTRQSGVPDRFTGSGSGTDFTLTISSVQAEDLAVYYCKQSYNLFTFGSGTKLEIKR
notes: mouse IgG1 kappa; also called anti-MLC (Hybridoma)

- Kd [8]: 0.047 nM
B15: DMS5052 (chimeric MLC mAb-cKIT dAb, DOM28m-007) (bispecific antibody)
heavy (part 1 of 2): QVQLQQSGAELASPGASVKLSCKASGYTFTTYWIHWVKQRPGQGLEWIGAIYPGDGDTRYTQNFKDKATLTADSSSSTAYMQLSSLASEDSAVFYCAREGTPPFTTATFAMAYWGQGTSVTVSS
heavy (part 2 of 2): STGEVQLLESGGGLVQPGGSLRLSCAASGFTFSNYAMGWVRQAPGKGLEWVSSISSSGFATYYADSVKGRFTISRDNSKNTLYLQMNSLRAEDTAVYYCAKSESRTFKAFDYWGQGTLVTVSS
light: DIVMSQSPSSLAVSAGDKVTMSCKSSQSLLYSRTRKNYLAWYQQKPGQSPKLLIYWASTRQSGVPDRFTGSGSGTDFTLTISSVQAEDLAVYYCKQSYNLFTFGSGTKLEIKR
notes: not shown: human IgG1 CH1-CH2-CH3

- binding result [4]: binds
B18: DOM28m-47 (other)
VH: EVQLLESGGGLVQPGGSLRLSCAASGFTFEAYGMMWVRQAPGKGLEWVSSISHSGLITYYADSVKGRFTISRDNSKNTLYLQMNSLRAEDTAVYYCAENGPLRQNSYFDYWGQGTLVTVSS
notes: as for B1
